# Literature values in patent US8278280B2, “Antagonists of the bradykinin B1 receptor” (priority 2003, dated 2012).
# Target: T1, B2 receptors (Homo sapiens, UniProt P30411)
# T1 sequence (P30411 1-391): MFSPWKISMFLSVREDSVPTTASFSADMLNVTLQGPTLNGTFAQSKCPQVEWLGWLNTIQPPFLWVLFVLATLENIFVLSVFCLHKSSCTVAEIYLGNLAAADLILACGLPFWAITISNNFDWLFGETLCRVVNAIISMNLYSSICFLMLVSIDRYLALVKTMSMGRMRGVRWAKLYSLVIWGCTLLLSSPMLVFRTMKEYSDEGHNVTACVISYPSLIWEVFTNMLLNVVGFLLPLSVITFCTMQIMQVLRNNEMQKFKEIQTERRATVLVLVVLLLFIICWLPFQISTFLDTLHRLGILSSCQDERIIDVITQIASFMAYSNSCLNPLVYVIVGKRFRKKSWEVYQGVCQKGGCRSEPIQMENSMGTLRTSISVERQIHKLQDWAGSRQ
substance,measurement,value
"Arg Pro Pro Gly Phe Ser Pro Phe (RPPGFSPF; listed as Homo sapiens) [des-Arg-BK, B1 Agonist]",activity at B2 receptors,inactive
